Test results published in PMC11211324 (Cell Discovery, 2024).
Changes are numbered by the printed parent chain. One block for each binder: values may come before it.

Tests used:
purified KRAS [1] = target: T1, purified KRAS (Homo sapiens (assumed), isoform 2B …, UniProt P01116-2, biotin (chemically labelled with EZ-link-Sulfo-NHS-biotin) in the BLI assay only)
purified KRAS [2] = target: T1, purified KRAS; experiment: BLI; biotinylated KRAS immobilised on streptavidin biosensors, KDCs (TKD, TKDm) in solution in a 2-fold dilution series; Octet Red96, 30 °C, PBST (1x PBS, 0.1% Tween 20); 100 s association, 200 s dissociation; 1:1 model, global fit; conditions: both partners purified
purified HRAS = target: T2, purified HRAS (Homo sapiens (assumed), UniProt P01112); experiment: BLI; TKD with purified HRAS or NRAS; Octet Red96, 30 °C, PBST; which partner was on the biosensor is not clearly told; conditions: both partners purified
T2 construct: HRAS, purified, bought; Catalogue numbers are printed in the order HRAS/NRAS; source: bought: MedChemExpress
T2 sequence (P01112 whole entry): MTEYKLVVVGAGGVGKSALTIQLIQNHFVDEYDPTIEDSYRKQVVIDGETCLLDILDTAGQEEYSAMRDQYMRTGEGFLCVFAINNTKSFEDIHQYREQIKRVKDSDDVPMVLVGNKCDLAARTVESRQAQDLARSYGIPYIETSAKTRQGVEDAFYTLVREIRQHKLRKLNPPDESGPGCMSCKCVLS

purified NRAS = target: T3, purified NRAS (Homo sapiens (assumed), UniProt P01111); experiment: as above; conditions: both partners purified
T3 construct: NRAS, purified, bought; Catalogue numbers are printed in the order HRAS/NRAS; source: bought: MedChemExpress
T3 sequence (P01111 whole entry): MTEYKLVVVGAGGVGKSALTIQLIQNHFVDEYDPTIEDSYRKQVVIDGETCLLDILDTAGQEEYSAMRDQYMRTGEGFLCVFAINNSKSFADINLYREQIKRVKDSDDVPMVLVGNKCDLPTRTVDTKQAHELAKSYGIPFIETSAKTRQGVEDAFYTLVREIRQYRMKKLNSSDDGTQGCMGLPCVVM

T1 sequence (P01116 whole entry, canonical isoform): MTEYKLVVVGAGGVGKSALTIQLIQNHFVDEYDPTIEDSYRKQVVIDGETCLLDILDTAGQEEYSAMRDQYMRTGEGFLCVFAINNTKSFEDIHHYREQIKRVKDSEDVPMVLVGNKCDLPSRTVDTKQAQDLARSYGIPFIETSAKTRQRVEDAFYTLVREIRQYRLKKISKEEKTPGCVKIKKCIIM

B1: 3 (VHH)
VHH: DVQLQESGGGLVQPGGSLRLNCAASGFVFSDYAMSWVRQAPGKGLEWVSAIYGGGYNPIYTDSVKGRFTISRDNAKNTLYLQIRTLKPEDTGVYYCAKEQTFGTFLNDTYYSPSYYDWGQGTQVTVSS
binding result (purified KRAS [1]): binds

B2: 5 (VHH)
VHH: B1 VHH with T61A
binding result (purified KRAS [1]): binds

B4: TKDm (negative control of TKD with mutant CTM peptide) (VHH)
VHH: DVQLQESGGGLVQAGGSLRLSCVASGRTFSTYPTGWFRQAPGKEREFVARINLSGGITNYADSVKGRFTISRDNAKNTVYLQMNSLKPEDTAVYYCGGGSTTWAGGIPTNFDYWGQGTQVTVSS
notes: cancer cell-penetrating peptide BR2 (derived from buforin IIb); KRAS nanobody, same as in TKD; also called TKDm-His; source: for co-IP the purified protein was added to living cells
Kd (purified KRAS [2]): 6.6 nM

More lines, now with the values ahead:

binding result (purified KRAS [1]): binds
B3: 2 (VHH)
VHH: B4 VHH with S25P, G26A, F29V, Q39R, L53F, D73N, A75T, G105D, T109I

binding result (purified HRAS): no binding
binding result (purified NRAS): no binding
Kd (purified KRAS [2]): 6.57 nM
B5: tumor-targeting KRAS degrader (TKD) (VHH)
VHH: B4 VHH
notes: cancer cell-penetrating peptide BR2 (derived from buforin IIb); KRAS nanobody from an alpaca immunised with KRAS (1-169 aa); Fusion of BR2, KRAS nanobody and CTM; also called KDC 1; KRAS degrader candidate 1; source: for co-IP the purified protein was added to living cells

binding result (purified KRAS [1]): binds
B6: 6 (VHH)
VHH: DVQLQESGGGLVEPGGSLRLSCAASGSIFGLDVMGWYRQAPGKQRELVAIITRGGTANYADSGKGRFTISSDYAKKTVSLQMGSLIPEDTAVYYCSALVLGTNYWGQGTQVTVSS

binding result (purified KRAS [1]): binds
B7: 4 (VHH)
VHH: DVQLQESGGGLVQPGGSLRLSCAASGFTFGNTGMSWVRQAPGKGLEWVSGISSGGAFSFYADSVKGRFTGSDNSAKNTVYLQMNSLQPEDTGVYYCAAGPRVALLTTPWTNPQSYHYWGQGTQVTVSS
